Measurements as given in article PMC9527803.

Target: baker's yeast alcohol dehydrogenase (baker's yeast) (UniProt P00330)
Assay: native MS; nano-ESI from 0.2 mol/L ammonium acetate, protein 2 to 5 x 10^-6 mol/L, Q Exactive UHMR modified for deposition

Substance: baker's yeast alcohol dehydrogenase (from UniProt P00330 1-348) (enzyme)
- stoichiometry N: 4
